# PMC3967872 (DNA repair, 2014)
# T1: His-tagged full-length S. pombe Apn2 with Asn at position 254 (His-Apn2^N254) (S. pombe, UniProt P87175 1-523)
# T1 sequence (looked up): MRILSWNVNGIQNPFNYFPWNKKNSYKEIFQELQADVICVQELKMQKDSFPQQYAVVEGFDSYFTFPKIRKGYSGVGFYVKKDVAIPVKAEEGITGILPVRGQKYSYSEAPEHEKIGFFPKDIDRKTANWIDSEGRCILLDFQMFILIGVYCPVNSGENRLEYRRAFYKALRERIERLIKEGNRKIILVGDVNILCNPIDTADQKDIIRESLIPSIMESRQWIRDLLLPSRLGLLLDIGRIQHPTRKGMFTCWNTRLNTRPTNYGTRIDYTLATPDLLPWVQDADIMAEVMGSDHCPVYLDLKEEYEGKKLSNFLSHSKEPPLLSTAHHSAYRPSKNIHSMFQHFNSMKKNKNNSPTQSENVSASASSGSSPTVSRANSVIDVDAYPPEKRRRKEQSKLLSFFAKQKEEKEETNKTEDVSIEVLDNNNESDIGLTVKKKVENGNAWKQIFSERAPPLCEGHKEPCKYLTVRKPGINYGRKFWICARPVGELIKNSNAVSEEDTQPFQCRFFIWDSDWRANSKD
# T2: His-tagged full-length SpApn2^N254/S295, catalytically inactive mutant (His-Apn2^S295) (S. pombe, UniProt P87175 1-523, H295S)
# T2 sequence (looked up): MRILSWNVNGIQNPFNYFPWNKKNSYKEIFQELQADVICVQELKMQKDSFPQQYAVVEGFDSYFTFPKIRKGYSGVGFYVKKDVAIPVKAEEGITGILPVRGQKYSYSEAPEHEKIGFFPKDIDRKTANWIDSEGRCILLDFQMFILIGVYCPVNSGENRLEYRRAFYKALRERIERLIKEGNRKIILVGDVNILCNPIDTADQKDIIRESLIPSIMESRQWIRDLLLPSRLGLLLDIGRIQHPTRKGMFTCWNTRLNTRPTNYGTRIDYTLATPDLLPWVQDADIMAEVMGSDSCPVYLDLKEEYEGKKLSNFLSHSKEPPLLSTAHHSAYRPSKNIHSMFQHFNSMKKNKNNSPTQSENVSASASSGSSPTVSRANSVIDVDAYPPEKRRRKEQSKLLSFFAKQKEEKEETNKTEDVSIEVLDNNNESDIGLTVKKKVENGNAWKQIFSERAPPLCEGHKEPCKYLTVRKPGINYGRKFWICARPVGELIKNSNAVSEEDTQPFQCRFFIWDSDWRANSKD
# B1: GST fusion of S. pombe Myh1(245-461) (domain or fragment, UniProt Q10159 245-461, looked up)
# chain: YQEQNVIRDGNTIKYDIEDVPCNICITDIPSKEDLQNWVVARYPVHPAKTKQREERALVVIFQKTDPSTKEKFFLIRKRPSAGLLAGLWDFPTIEFGQESWPKDMDAEFQKSIAQWISNDSRSLIKKYQSRGRYLHIFSHIRKTSHVFYAIASPDIVTNEDFFWISQSDLEHVGMCELGLKNYRAALEIKKRKVTSLSNFKEPKLTSARRIVTKAEC
# B2: GST fusion of intact wild-type S. pombe Myh1 (GST-Myh1) (enzyme, UniProt Q10159 1-461, looked up)
# chain: MSDSNHSLDLHSYTQLEVERFRESLIQFYDKTKRILPWRKKECIPPSEDSPLEDWEQPVQRLYEVLVSEIMLQQTRVETVKRYYTKWMETLPTLKSCAEAEYNTQVMPLWSGMGFYTRCKRLHQACQHLAKLHPSEIPRTGDEWAKGIPGVGPYTAGAVLSIAWKQPTGIVDGNVIRVLSRALAIHSDCSKGKANALIWKLANELVDPVRPGDFNQALMELGAITCTPQSPRCSVCPISEICKAYQEQNVIRDGNTIKYDIEDVPCNICITDIPSKEDLQNWVVARYPVHPAKTKQREERALVVIFQKTDPSTKEKFFLIRKRPSAGLLAGLWDFPTIEFGQESWPKDMDAEFQKSIAQWISNDSRSLIKKYQSRGRYLHIFSHIRKTSHVFYAIASPDIVTNEDFFWISQSDLEHVGMCELGLKNYRAALEIKKRKVTSLSNFKEPKLTSARRIVTKAEC
# Experiments:
# Assay in all cases: pull-down
# [1] = molecular target: B2
# [2] = molecular target: B1
# [3] = molecular target: T1, His-tagged full-length S. pombe Apn2 …
# [4] = molecular target: T2, His-tagged full-length …
binding result [3],Binder,also measured
,"His- and maltose binding protein (MBP)-tagged SpApn2 residues 1-303 (His-MBP-Apn2^1-303) (domain or fragment, S. pombe, UniProt P87175 1-303, looked up) MRILSWNVNGIQNPFNYFPWNKKNSYKEIFQELQADVICVQELKMQKDSFPQQYAVVEGFDSYFTFPKIRKGYSGVGFYVKKDVAIPVKAEEGITGILPVRGQKYSYSEAPEHEKIGFFPKDIDRKTANWIDSEGRCILLDFQMFILIGVYCPVNSGENRLEYRRAFYKALRERIERLIKEGNRKIILVGDVNILCNPIDTADQKDIIRESLIPSIMESRQWIRDLLLPSRLGLLLDIGRIQHPTRKGMFTCWSTRLNTRPTNYGTRIDYTLATPDLLPWVQDADIMAEVMGSDHCPVYLDLK",binding result [1]: binds
,"His-tagged full-length S. pombe Apn2 with Ser at position 254 (His-Apn2^S254) (enzyme, UniProt P87175 1-523, looked up) MRILSWNVNGIQNPFNYFPWNKKNSYKEIFQELQADVICVQELKMQKDSFPQQYAVVEGFDSYFTFPKIRKGYSGVGFYVKKDVAIPVKAEEGITGILPVRGQKYSYSEAPEHEKIGFFPKDIDRKTANWIDSEGRCILLDFQMFILIGVYCPVNSGENRLEYRRAFYKALRERIERLIKEGNRKIILVGDVNILCNPIDTADQKDIIRESLIPSIMESRQWIRDLLLPSRLGLLLDIGRIQHPTRKGMFTCWSTRLNTRPTNYGTRIDYTLATPDLLPWVQDADIMAEVMGSDHCPVYLDLKEEYEGKKLSNFLSHSKEPPLLSTAHHSAYRPSKNIHSMFQHFNSMKKNKNNSPTQSENVSASASSGSSPTVSRANSVIDVDAYPPEKRRRKEQSKLLSFFAKQKEEKEETNKTEDVSIEVLDNNNESDIGLTVKKKVENGNAWKQIFSERAPPLCEGHKEPCKYLTVRKPGINYGRKFWICARPVGELIKNSNAVSEEDTQPFQCRFFIWDSDWRANSKD",fold weaker interaction than intact Myh1 [2]: 2 fold
binds,B1,
binds,B2,binding result [4]: binds
binds,"GST fusion of S. pombe Myh1(I261A) (enzyme, UniProt Q10159 1-461, looked up) MSDSNHSLDLHSYTQLEVERFRESLIQFYDKTKRILPWRKKECIPPSEDSPLEDWEQPVQRLYEVLVSEIMLQQTRVETVKRYYTKWMETLPTLKSCAEAEYNTQVMPLWSGMGFYTRCKRLHQACQHLAKLHPSEIPRTGDEWAKGIPGVGPYTAGAVLSIAWKQPTGIVDGNVIRVLSRALAIHSDCSKGKANALIWKLANELVDPVRPGDFNQALMELGAITCTPQSPRCSVCPISEICKAYQEQNVIRDGNTIKYDAEDVPCNICITDIPSKEDLQNWVVARYPVHPAKTKQREERALVVIFQKTDPSTKEKFFLIRKRPSAGLLAGLWDFPTIEFGQESWPKDMDAEFQKSIAQWISNDSRSLIKKYQSRGRYLHIFSHIRKTSHVFYAIASPDIVTNEDFFWISQSDLEHVGMCELGLKNYRAALEIKKRKVTSLSNFKEPKLTSARRIVTKAEC",
